Assay results reported in patent US20050064507.

Columns and labels:
[1] = biological target: T1, AF15q14 peptide GFLNEPLSSKSQRRKSLKLK (SEQ ID NO:132) (not fully specified)
T1 chain: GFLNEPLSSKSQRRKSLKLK

[2] = biological target: T2, ARHGAP4 peptide AGPLRKSSLKKGGRL (SEQ ID NO:98) (not fully specified)
T2 chain: AGPLRKSSLKKGGRL

[3] = biological target: T3, ARHGAP6 peptide DGQKRKKSLRKKLD (SEQ ID NO:92) (not fully specified)
T3 chain: DGQKRKKSLRKKLD

[4] = biological target: T4, ARHGAP6 peptide SAQITIPKDGQKRKKSLRKK (SEQ ID NO:156) (not fully specified)
T4 chain: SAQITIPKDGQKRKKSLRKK

[5] = biological target: T5, CREB1 peptide EILSRRPSYRKILND (SEQ ID NO:106) (not fully specified)
T5 chain: EILSRRPSYRKILND

[6] = biological target: T6, DGKZ peptide KKKKRASFKRKSSKKG (SEQ ID NO:77) (not fully specified)
T6 chain: KKKKRASFKRKSSKKG

[7] = biological target: T7, ERN1 peptide KLAVGRHSFSRRSGV (SEQ ID NO:94) (not fully specified)
T7 chain: KLAVGRHSFSRRSGV

[8] = biological target: T8, KCNH2 peptide RQRKRKLSFRRRTDKD (SEQ ID NO:86) (not fully specified)
T8 chain: RQRKRKLSFRRRTDKD

[9] = biological target: T9, … peptide KKPFKLSGLSFKRNRKE (SEQ ID NO:88) (not fully specified)
T9 chain: KKPFKLSGLSFKRNRKE

[10] = biological target: T10, MAP3K14 peptide WKGKRRSKARKKRK (SEQ ID NO:100) (not fully specified)
T10 chain: WKGKRRSKARKKRK

[11] = biological target: T11, MARCKS peptide KKKRFSFKKSFKLSGFSFKK (SEQ ID NO:111) (not fully specified)
T11 chain: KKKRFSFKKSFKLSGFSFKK

[12] = biological target: T12, MARCKS peptide KKRFSFKKSFKLSGFSFKKN (SEQ ID NO:123) (not fully specified)
T12 chain: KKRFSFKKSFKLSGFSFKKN

[13] = biological target: T13, MGC2941 peptide RPTPGDGEKRSRIKKSKKRK (SEQ ID NO:139) (not fully specified)
T13 chain: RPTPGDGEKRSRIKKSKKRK

[14] = biological target: T14, Myt1 kinase peptide PPRTPGWHQLQPRRVSFRGE (SEQ ID NO:163) (not fully specified)
T14 chain: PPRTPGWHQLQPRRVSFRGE

[15] = biological target: T15, NIK peptide WKGKRRSKARKKRK (SEQ ID NO:131) (not fully specified)
T15 chain: WKGKRRSKARKKRK

[16] = biological target: T16, PARIS1 peptide EYLERRASRRRAV (SEQ ID NO:89) (not fully specified)
T16 chain: EYLERRASRRRAV

[17] = biological target: T17, PLD1 peptide KYKAFIRIPIPTRRHTFRRQ (SEQ ID NO:161) (not fully specified)
T17 chain: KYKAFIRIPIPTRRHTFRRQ

[18] = biological target: T18, PPP1R14A peptide QKRHARVTVKYDRRE (SEQ ID NO:107) (not fully specified)
T18 chain: QKRHARVTVKYDRRE

[19] = biological target: T19, PRKCM peptide VHYTSKDTLRKRHYWR (SEQ ID NO:91) (not fully specified)
T19 chain: VHYTSKDTLRKRHYWR

[20] = biological target: T20, PSCD2 peptide AARKKRISVKKKQEQ (SEQ ID NO:93) (not fully specified)
T20 chain: AARKKRISVKKKQEQ

[21] = biological target: T21, PSCDBP peptide LSSMFGTLPRKSRKGSVRKQ (SEQ ID NO:144) (not fully specified)
T21 chain: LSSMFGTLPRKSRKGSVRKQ

[22] = biological target: T22, SDPR peptide EKIKRSSLKKVDSLKK (SEQ ID NO:104) (not fully specified)
T22 chain: EKIKRSSLKKVDSLKK

[23] = biological target: T23, Urotensin-2 receptor peptide LYARLARAYRRSQRASFKRA (SEQ ID NO:159) (not fully specified)
T23 chain: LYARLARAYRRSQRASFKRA

[24] = biological target: T24, ankyrin R peptide DLIEGRKGAQIVKRASLKRG (SEQ ID NO:152) (not fully specified)
T24 chain: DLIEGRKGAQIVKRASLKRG

[25] = biological target: T25, beta adducin peptide PSKSPSKKKKKFRTPSFLKK (SEQ ID NO:137) (not fully specified)
T25 chain: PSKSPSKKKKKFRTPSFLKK

[26] = biological target: T26, dag kinase iota peptide NRKKKRTSFKRKA (SEQ ID NO:115) (not fully specified)
T26 chain: NRKKKRTSFKRKA

[27] = biological target: T27, gravin peptide KKFFTQGWAGWRKKTSFRKP (SEQ ID NO:154) (not fully specified)
T27 chain: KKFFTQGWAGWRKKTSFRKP

[28] = biological target: T28, nuclear RNA export factor 3 peptide VRYTPYTISPYNRKGSFRKQ (SEQ ID NO:143) (not fully specified)
T28 chain: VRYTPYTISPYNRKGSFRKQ

[29] = biological target: T29, pleckstrin 1 peptide KAIKAIEGGQKFARKSTRRS (SEQ ID NO:126) (not fully specified)
T29 chain: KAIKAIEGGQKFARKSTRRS

[30] = biological target: T30, plectin peptide PLKEKKRERKTSSKSSVRKR (SEQ ID NO:125) (not fully specified)
T30 chain: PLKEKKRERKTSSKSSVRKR

[31] = biological target: T31, splicing factor, arginine/serine-rich 4 peptide RSRSRSRSKSKDKRKSRKRS (SEQ ID NO:134) (not fully specified)
T31 chain: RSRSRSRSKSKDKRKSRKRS

B1: PKC-epsilon (protein)
chain: MVVFNGLLKIKICEAVSLKPTAWSLRHAVGPRPQTFLLDPYIALNVDDSRIGQTATKQKTNSPAWHDEFVTDVCNGRKIELAVFHDAPIGYDDFVANCTIQFEELLQNGSRHFEDWIDLEPEGRVYVIIDLSGSSGEAPKDNEERVFRERMRPRKRQGAVRRRVHQVNGHKFMATYLRQPTYCSHCRDFIWGVIGKQGYQCQVCTCVVHKRCHELIITKCAGLKKQETPDQVGSQRFSVNMPHKFGIHNYKVPTFCDHCGSLLWGLLRQGLQCKVCKMNVHRRCETNVAPNCGVDARGIAKVLADLGVTPDKITNSGQRRKKLIAGAESPQPASGSSPSEEDRSKSAPTSPCDQEIKELENNIRKALSFDNRGEEHRAASSPDGQLMSPGENGEVRQGQAKRLGLDEFNFIKVLGKGSFGKVMLAELKGKDEVYAVKVLKKDVILQDDDVDCTMTEKRILALARKHPYLTQLYCCFQTKDRLFFVMEYVNGGDLMFQIQRSRKFDEPRSRFYAAEVTSALMFLHQHGVIYRDLKLDNILLDAEGHCKLADFGMCKEGILNGVTTTTFCGTPDYIAPEILQELEYGPSVDWWALGVLMYEMMAGQPPFEADNEDDLFESILHDDVLYPVWLSKEAVSILKAFMTKNPHKRLGCVASQNGEDAIKQHPFFKEIDWVLLEQKKIKPPFKPRIKTKRDVNNFDQDFTREEPVLTLVDEAIVKQINQEEFKGFSYFGEDLMP
**Q.** What does the source list for B1?
**A.** in vitro phosphorylation, 1 uM peptide (% of best substrate) [1]: 47; in vitro phosphorylation (% of best substrate) [2]: 34; in vitro phosphorylation (% of best substrate) [3]: 51; in vitro phosphorylation, 1 uM peptide (% of best substrate) [4]: 18; in vitro phosphorylation (% of best substrate) [5]: 31; in vitro phosphorylation (% of best substrate) [6]: 71; in vitro phosphorylation (% of best substrate) [7]: 13; in vitro phosphorylation (% of best substrate) [8]: 63; in vitro phosphorylation (% of best substrate) [9]: 44; in vitro phosphorylation (% of best substrate) [10]: 13; in vitro phosphorylation (% of best substrate) [11]: 12; in vitro phosphorylation, 1 uM peptide (% of best substrate) [12]: 67; in vitro phosphorylation, 1 uM peptide (% of best substrate) [13]: 24; in vitro phosphorylation, 1 uM peptide (% of best substrate) [14]: 14; in vitro phosphorylation, 1 uM peptide (% of best substrate) [15]: 43; in vitro phosphorylation (% of best substrate) [16]: 45; in vitro phosphorylation, 1 uM peptide (% of best substrate) [17]: 21; in vitro phosphorylation (% of best substrate) [18]: 7; in vitro phosphorylation (% of best substrate) [19]: 49; in vitro phosphorylation (% of best substrate) [20]: 40; in vitro phosphorylation, 1 uM peptide (% of best substrate) [21]: 24; in vitro phosphorylation (% of best substrate) [22]: 17; in vitro phosphorylation, 1 uM peptide (% of best substrate) [23]: 25; in vitro phosphorylation, 1 uM peptide (% of best substrate) [24]: 25; in vitro phosphorylation, 1 uM peptide (% of best substrate) [25]: 32; in vitro phosphorylation, 1 uM peptide (% of best substrate) [26]: 91; in vitro phosphorylation, 1 uM peptide (% of best substrate) [27]: 29; in vitro phosphorylation, 1 uM peptide (% of best substrate) [28]: 21; in vitro phosphorylation, 1 uM peptide (% of best substrate) [29]: 69; in vitro phosphorylation, 1 uM peptide (% of best substrate) [30]: 48; in vitro phosphorylation, 1 uM peptide (% of best substrate) [31]: 32
